From publication PMC8183521 (2021)

Biological target: SARS-CoV-2 (2019-nCoV) Spike RBD-His Recombinant Protein (SARS-CoV-2, UniProt P0DTC2 319-541)
Assay: ELISA

B1: B-38 (antibody, V domains shown)
VH: EVQLVESGGGLVQPGGSLRLSCAASGFIVSSNYMSWVRQAPGKGLEWVSVIYSGGSTYYADSVKGRFTISRHNSKNTLYLQMNSLRAEDTAVYYCAREAYGMDVWGQGTTVTVSS
VL: DIVMTQSPSFLSASVGDRVTITCRASQGISSYLAWYQQKPGKAPKLLIYAASTLQSGVPSRFSGSGSGTEFTLTISSLQPEDFATYYCQQLNSYPPYTFGQGTKLEIK
With B1 the EC50 was 1.5 µg/mL.
